Experimental data taken from the supplement of paper PMC9170038.

System: MS2 coat protein
Assay: apparent KD of MS2 coat protein; designed switch direction (-1 OFF switch, 1 ON switch): -1; higher = weaker reporter binding
Procedure, shortened: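 The buffer was Tris-HCl pH 7.5 with KCl, MgCl2, BSA, DTT, tRNA and Tween-20. In it, SNAP-549-labelled MS2 coat protein was titrated in doubling steps from 0.7 or 1.5 nM to 3 µM over chip-bound RNA switches transcribed by stalled E. coli RNA polymerase on Illumina chips. Apparent KD is the per-design median over clusters of curve fits to normalised fluorescence.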

[1] = input ligand: microRNA oligo, concentration not stated
[2] = Eterna round: R95, input ligand: FMN 200 uM
[3] = Eterna round: R95, input ligand: microRNA oligo, concentration not stated
[4] = Eterna round: R95, input ligand: none

Sequence | apparent KD of MS2 coat protein (input ligand: FMN 200 uM) [nM] | apparent KD of MS2 coat protein (input ligand: none) [nM] | apparent KD of MS2 coat protein [1] [nM] | other results
ACGUCCUUGGUAAGGAUAUCGAUGGAGGCGAUCCACGAGAAGGUACAUGAGGAUCACCCAUGUAUACGAAUACG [Eternabot (L1) Solution 94] (Eterna round: R97, puzzle: Brourd's mod of Exclusion 4) | 18.4 | 17.8 |  | 
CCCUAGUAUGUAGGAUAUCGGUCAGUUUCUGAUCGAGAAGGACAUGAGGAUCACCCAUGUAAAACGUCCGGUUUCUGGAUAGGG [JL ENG1 3.56] (Eterna round: R96, puzzle: Exclusion NG 1) | 73.2 | 24.6 | 17 | 
CUAGAUCUUCGGAUCUAGUACAUGAGGAUCACCCAUGUGACGAGUAUAUCUUCAAACAAGCUUUUUGCUCGUCUUAU [Sensor v3 - Turn-off variant 1 - 24] (puzzle: Sensor v3, turn-off variant 1) |  |  |  | apparent KD of MS2 coat protein [2]: 37.3 nM; apparent KD of MS2 coat protein [3]: 49.5 nM; apparent KD of MS2 coat protein [4]: 40.6 nM
AGCAUGCUAGGAUAUACGGGACAUUAGGGUUCGUUGUGUGGACAUGAGGAUCACCCAUGUAGAAGGAGCGUGCA [Mat - Exclusion 2 - Mod of Hyphema - D91] (puzzle: Exclusion 2) |  |  |  | apparent KD of MS2 coat protein [3]: 73.1 nM
AAGCUUUUUGGUGACCUCGACAUGAGGAUCACCCAUGUCGUAUUAGAACUUCGGACGAUGAUCGUGCUCGUCAUAAG [Eternabot (Original) Solution 43] (Eterna round: R97, puzzle: Sensor, turn-off variant 1) | 598 | 677 |  | 
AGGUGCUUCAGGAGACAUGAGGAUCACCCAUGUUGAGUUAGCGAGGAUAUCGGUAACCAUUGUGAUGAGAAGGCGCAAACCAGA [Ex NG3 #44] (Eterna round: R96, puzzle: Exclusion NG 3) | 60.5 | 47.3 | 15.6 | 
AUAAACCUAGGAUAUACAUGAGGAUCACCCAUGUAAGGGCAAUGCCCAUGCUCCUCAUGUAGAAGGAGGAGCAG [Xezausa] (puzzle: Exclusion 3) |  |  |  | apparent KD of MS2 coat protein [3]: 20.2 nM
UAACAUGUACAAGGAUAUCAGCACGUUUAGUGCUGAGAAGGUGUAACAUGAGGAUCACCCAUGUAGAUCAUUAAUUAAUUAAUU [ENG1/9-B2] (Eterna round: R96, puzzle: Exclusion NG 1) | 244 | 102 | 120 | 
AAUUAGUGAGGAUAUUCGAGCAGUGGCAGUAGCCAGUGCAUGAAGAAGGCACAUGAGGAUCACCCAUGUUAUAA [EX4 #60] (Eterna round: R97, puzzle: Exclusion 4) | 53.4 | 28.4 |  | 
GAAAAGGUAGGAUAUACGAAAAAAAAGGGUAGAAAAAAAACACAUGAGGAUCACCCAUGUAGAAGGACCAAAAG [Mat - Exclusion 2 - Tesla mod - D30] (Eterna round: R96, puzzle: Exclusion 2) |  |  | 25.3 | 
GAAUAGAGAGGAUAUGCGAUGUAGGUAGUACGAUAUAUCUGACAUGAGGAUCACCCAUGUAGAAGGCUCAGAUC [EX2 #6] (Eterna round: R97, puzzle: Exclusion 2) | 33.9 | 36.4 |  | 
AGGUAGUCAGGAUAUUAGGAGUAGCGGGAUAACGCUACGAGUGAGAAGGGACAUGAGGAUCACCCAUGUUUAUU [JR_Ex4_Sub069] (Eterna round: R97, puzzle: Exclusion 4) | 70.3 | 26.8 |  | 
UUUUAACAUGAGGAUCACCCAUGUGAGGAUAUCGAUUUUUUUAUUAAUAUUAAUAAAACGAGAAGGCACAUUUU [JMF 19] (puzzle: Exclusion 1) |  |  |  | apparent KD of MS2 coat protein [3]: 73.5 nM
AUCAGCUCGUGAGGAUAUACAUGAGGAUCACCCAUGUGAUCAAUAGCAGCUUCGGCUGCAUUAAUGUAGAAGGCACGAGCUGAU [ENG2/5-A3] (Eterna round: R96, puzzle: Exclusion NG 2) | 77.9 | 214 | 22.2 | 
CCCGUCGAUGUAGGAUAUGCCCGGGUCUCCCGGGCAGAAGGACAUGAGGAUCACCCAUGUUCGUGAGGAUCACCCAUGAAUGGG [Double but mutated MS2] (Eterna round: R96, puzzle: Exclusion NG 1) | 15 | 19.4 | 13 | 
UUAAAGGCAGGAUAUACAUUUUUUUUAUUAUCCUCAUUAUUACAUGAGGAUCACCCAUGUAGAAGGGCCAAAUU [Mat - Exclusion 2 - Mod of Hog - D85] (Eterna round: R96, puzzle: Exclusion 2) | 312 | 357 | 187 | 
AAAUGUUGUAAGGAUAUUGAAUAAGAAAACUUACGAGAAGGUGCGACAUGAGGAUCACCCAUGUUCCCAAAGGG [Alacar 2] (Eterna round: R97, puzzle: Exclusion 6) | 31.5 | 30.4 |  | 
AUCGUGCAGCUUUGCUGUACGAGUACAUGAGGAUCACCCAUGUAGGAUAUGGUACGCUUUGCGUGCUAGAAGGAUAUGAGAUGU [JL ENG3 1.49] (Eterna round: R96, puzzle: Exclusion NG 3) | 37.6 | 33 | 32 | 

Sequence | apparent KD of MS2 coat protein (input ligand: FMN 200 uM) [nM] | apparent KD of MS2 coat protein (input ligand: none) [nM] | apparent KD of MS2 coat protein [1] [nM] | other results
ACCUUACUGGUCAGGAUAUACAGUCUCGGGUGGGUGUAGAAGGGACAUGAGGAUCACCCAUGUAGGUUGCAGCA [alecazam56] (Eterna round: R97, puzzle: Brourd's mod of Exclusion 4) | 100 | 156 |  | 
UUAUAGGCAGGAUAUACAUGAGGAUCACCCAUGUAAAUUUUUCGUUUAACUUGAAUGUGUAGAAGGGCCAUAUU [Ex3 #57] (Eterna round: R97, puzzle: Exclusion 3) | 22.3 | 21.6 |  | 
CUAGCGAGUGUAGGAUAUCGGACUGUUUCAGUCUGAGAAGGACAUGAGGAUCACCCAUGUGUAGCUACGUGAGUAGCACGCUAG [JL ENG1 3.88] (Eterna round: R96, puzzle: Exclusion NG 1) | 40.2 | 22.3 | 15 | 
AUAAUUAAUGCAGGAUAUCAGCACGUUUAGUGCUGAGAAGGGCACAUGAGGAUCACCCAUGUGAUCAAUUAAUAUUAAUAUUAU [ENG1/11-D2] (Eterna round: R96, puzzle: Exclusion NG 1) | 269 | 65 | 51.1 | 
AAAAUGUCAGGAUAUUGUUAGUUUAGUUGUUUGUAUUAGUUCGAGAAGGGACAUGAGGAUCACCCAUGUUAAAA [Ex4 #67] (Eterna round: R97, puzzle: Exclusion 4) | 45.7 | 29.9 |  | 
UAGCAGAGAGGAUAUACAUUCAUCACCCGCGCAUCAUGCGCACAUGAGGAUCACCCAUGUAGAAGGCUCGUGCC [EX2 C.27] (Eterna round: R97, puzzle: Exclusion 2) | 74.3 | 28.2 |  | 
CCAAGCUGUGUGAGGAUAUGCUGGUCCUUGGAUCAGCAGAAGGCACAUGAGGAUCACCCAUGUGAAAAGCUUGG [Mat - Exclusion 4 - JL Mod - D92] (puzzle: Brourd's mod of Exclusion 4) |  |  |  | apparent KD of MS2 coat protein [3]: 13.8 nM
GUGUACGGAGGAUAUGCUGGAAUCUAGCGAAGCUAGGUUCCACAUGAGGAUCACCCAUGUAGAAGGCUGUACAC [Dot plot directed A v5] (puzzle: Exclusion 2) |  |  |  | apparent KD of MS2 coat protein [3]: 21.1 nM
GAACUGAAGCUUUGCUUUAGUCGUACAUGAGGAUCACCCAUGUAGGAUAUGGUAGGCAAAGCUUACUAGAAGGACAGAGUGAUC [Mat - Exclusion NG 3 - Mod of JL - D69] (Eterna round: R96, puzzle: Exclusion NG 3) | 99.1 | 71.3 | 156 | 
ACUAGAUGAGGAUAUACACAUUUUAGUGUUCCUCUAGAUUAACAUGAGGAUCACCCAUGUAGAAGGCAUCAUUA [Exclusion 2 - 9] (puzzle: Exclusion 2) |  |  |  | apparent KD of MS2 coat protein [3]: 65 nM
AGUAGUAGUAUCCGAUCUUACAUGAGGAUCACCCAUGUUUCUAGACGUGCACGCGAUGCUCGUCAGACUACCAGAUG [salish99_TOv1_r3_053] (puzzle: Sensor v3, turn-off variant 1) |  |  |  | apparent KD of MS2 coat protein [2]: 128 nM; apparent KD of MS2 coat protein [3]: 173 nM; apparent KD of MS2 coat protein [4]: 174 nM
CUAGUAUAUCAGGAUAUGAUUUUAUAUAGUUGAUCAGAAGGGAUAACAUGAGGAUCACCCAUGUUAAGGAGUGA [JR_Ex6_Sub042] (Eterna round: R97, puzzle: Exclusion 6) | 99.2 | 38.7 |  | 
GGCCUGUAAGGAUAUUAGUAGUAGUCAGAAUAGACUAUUACUGAGAAGGUACAUGAGGAUCACCCAUGUUGGCC [Eli x4 4.06] (Eterna round: R97, puzzle: Exclusion 4) | 17.7 | 14 |  | 
UUAGGUAAAGGAUAUGUAUGGGCGACCCAUAUGACCGAGUGACAUGAGGAUCACCCAUGUAGAAGGUUGCUGAU [Eternabot (L1) Solution 60] (Eterna round: R97, puzzle: Exclusion 2) | 125 | 95.7 |  | 
GUUGUGUAAGGAUAUGCCUGGCCGUGAGGCCAGAUUGAGUGGCAGAAGGUACAUGAGGAUCACCCAUGUACGGG [salish99_ex4_4_003] (Eterna round: R97, puzzle: Exclusion 4) | 145 | 26.8 |  | 
ACGAAACAUGAGGAUCACCCAUGUGAGGAUAUGUAAAUAGUAAACAAAUAAGAAAUAAACAGAAGGCACACAGG [JR_Exclusion1_Sub004] (Eterna round: R96, puzzle: Exclusion 1) |  |  | 24.3 | 
UAUGGGUGUGUGAGGAUAUACGAAGGCAGUGGCCAGUAGAAGGUACAUGAGGAUCACCCAUGUGUCCAAAAGUG [Isonge] (puzzle: Brourd's mod of Exclusion 4) |  |  |  | apparent KD of MS2 coat protein [3]: 13.9 nM
